Test results from publication PMC11488100, “PET imaging of CXCR4 expression using [^18F]AlF-NOTA-QHY-04 for hematologic malignancy and solid tumors” (Theranostics, 2024).
Bridge positions count the residues as written; N and C are the ends. Square brackets hold non-standard residues; d marks the D form. Peptide text beside a SMILES is read from it. * marks the point of attachment. NOTA = O=C(O)CN1CCN(CC(=O)O)CCN(CC(=O)*)CC1; 2Nal = N[C@@H](Cc1ccc2ccccc2c1)C(=O)O; Pen = CC(C)(S)[C@H](N)C(=O)O; 4Amb = NCc1ccc(C(=O)O)cc1; Ahx = NCCCCCC(=O)O

Format: in vitro ADME, human
Procedure: The in vitro and in vivo stability of [^18F]AlF-NOTA-QHY-04 were evaluated by radio-HPLC to examine the RCP after different incubation periods. The binding affinity of the unlabeled precursor to CXCR4 was measured using the biolayer interferometry Octet Red96 system (PALL ForteBio, USA). The details are supplied in the supplemental materials.
Synthesis of [18F]AlF-NOTA-QHY-04
Briefly, NOTA-QHY-04 was radiolabeled with [18F]F-, following procedures. 10-20 […]
GBq [18F]F− produced by medical cyclotron (MINITRACE Cyclotron, GE, USA) was […]
captured with a QMA SepPak light cartridge (Waters Corporation, USA) and then eluted […]
with 300-500 μL saline (0.9% NaCl). Then, the saline containing [18F]F− was added to […]
The partition coefficient (logD) of [18F]AlF-NOTA-QHY-04 was determined in a […]
from each phase were measured for radioactivity using a γ-counter. […]
repeated three times to ensure the accuracy of the results. The logD was calculated by […]
dividing the average radioactivity in the 1 -octanol layer by that in the PBS layer, and the […]
human serum albumin solution were evaluated by radio-HPLC to examine the radiochemical purity after different incubation periods. For the saline study, 200 μL of [18F]AlF-NOTA-QHY-04 (0.74–3.70 MBq) was incubated at 37°C with 800 μL of saline for 1 h, 3 h and 6 h respectively, and then directly evaluated by radio -HPLC. […]

Question: For C[C@H](NC(=O)[C@H](CCCNC(=N)N)NC(=O)CCCCCNC(=O)c1ccc(CNC(=O)CN2CCN(CC(=O)O)CCN(CC(=O)O)CC2)cc1)C(=O)N[C@@H]1CSSC(C)(C)[C@@H](C(=O)O)NC(=O)[C@H](Cc2c[nH]cn2)NC(=O)[C@H](Cc2ccc3ccccc3c2)NC(=O)[C@H](CCCNC(=N)N)NC1=O [[^18F]AlF-NOTA-QHY-04] ({NOTA-4Amb-Ahx}-RA[dC]R[2Nal]H[Pen]-OH; disulfide 3-7), which “radiochemical purity after incubation in 5% human serum albumin solution” value is on record?
Answer: Its value is “above 95%”.
